This note sets out measurements from paper PMC4805542.

The test system of the series is ZF6-DB (synthetic construct). Nature of the series: EMSA. The conditions noted are these: 1.5 uM protein, DNA titrated 145-250 nM; apparent Kd, Scatchard; 6.25 mM MgCl2; 25 mM Hepes pH 7.9, 50 mM KCl, 6.25 mM MgCl2, 1% Nonidet P-40, 5% glycerol; 15 min on ice; 5% PAGE in 0.5x TBE at 4 C. (In general: In EMSA bound probe runs differently from free probe, usually more slowly.)

In the case of hRHO 65 bp duplex oligonucleotide, the Kd came to 41.9 nM.
